Assay results from patent US20150197757, “OXYGEN-RESPONSIVE BACTERIAL GENE SWITCH” (Wisconsin Alumni Research Foundation, published 2015).
Numbering of substitutions follows the chain as printed.

Legend:
ArcA (chromosomal) [1] = biological target: T1, ArcA (chromosomal) (Escherichia coli, UniProt P0A9Q1 P0A9Q1:1-238); test: cell_activity; anaerobic lacZ fusion; repression largely relieved with O2
T1 sequence: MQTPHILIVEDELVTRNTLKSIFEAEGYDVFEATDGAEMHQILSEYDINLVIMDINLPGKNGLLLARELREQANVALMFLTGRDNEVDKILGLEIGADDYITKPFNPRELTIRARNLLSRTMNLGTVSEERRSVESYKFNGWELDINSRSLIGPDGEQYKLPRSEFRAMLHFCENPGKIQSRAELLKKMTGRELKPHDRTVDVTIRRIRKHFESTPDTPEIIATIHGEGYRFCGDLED
Method: (§1) Strains containing P1icdA-lacZ were grown in minimal media with 0.2% glucose. Fold repression was calculated by dividing the β-galactosidase activity of a ΔarcA strain (e.g., 803 Miller units for wt P1icdA-lacZ without O₂) by the activity of an arcA⁺ strain (e.g., 57 Miller units for wt P1icdA without O₂). The 10-bp DRs are indicated by open boxes with an X representing a DR element for which the repressive activity has been eliminated by mutation, and asterisks denoting DRs that have been mutated towards consensus (see FIG. 1C). (A) Effects of mutations away from consensus within each DR element, assayed under anaerobic conditions (—O₂). (B) The effect of mutations towards consensus within each DR element, assayed under anaerobic conditions. The dotted line represents anaerobic ArcA-dependent repression of wt P1icdA. (C) The effect of mutations towards consensus within each DR element, assayed under aerobic conditions. […]
(§2) β-galactosidase assays—All strains were grown in MOPS minimal medium (Neidhardt et al., 1974) with 0.2% glucose at 37° C. and sparged with a gas mix of 95% N₂ and 5% CO₂ (anaerobic) or 70% N₂, 5% CO₂, and 25% O₂ (aerobic). […] Standard errors for data plotted as ‘fold repression’ were calculated using a propagation of standard error formula (Ku, J. Res. National Bureau of Standards 70C:263-273 (1966)).

ArcA (chromosomal) [2] = biological target: T1, ArcA (chromosomal); test: cell_activity; anaerobic
Method: P1icdA expression in the construct with a fourth DR element was about 18% higher in a ΔarcA background compared to the other strains tested (data not shown).
How ArcA binding to each DR element contributes to icdA repression was determined by measuring β-galactosidase activity produced from P1icdA-lacZ transcriptional fusions containing the GT-to-CA (5′-TGTTA-3′ to 5′-TCATA-3′) (SEQ ID NO:2; SEQ ID NO:4, respectively) mutations within each DR element under anaerobic conditions. […] P1izcdA was repressed 14-fold by ArcA (FIG. 3A). […]
β-galactosidase assays—All strains were grown in MOPS minimal medium (Neidhardt et al., 1974) with 0.2% glucose at 37° C. and sparged with a gas mix of 95% N₂ and 5% CO₂ (anaerobic) or 70% N₂, 5% CO₂, and 25% O₂ (aerobic). […] To terminate cell growth and any further protein synthesis, chloramphenicol (final concentration, 20 μg/ml) or tetracycline (final concentration, 10 μg/ml) was added, and cells were placed on ice until assayed for β-galactosidase activity (Miller J H (1972) Experiments in molecular genetics. [Cold Spring Harbor, N.Y.]: Cold Spring Harbor Laboratory). β-Galactosidase assays were repeated at least three times and fold repression was calculated by dividing the β-galactosidase activity of a ΔarcA strain by the activity of an arcA⁺ strain. […]

ArcA (chromosomal) [3] = biological target: T1, ArcA (chromosomal); test: cell_activity; anaerobic; aerobic about 2.5-fold repression
Method: as §1, §2

[4] = biological target: T2, ArcA-P (phosphorylated ArcA) (Escherichia coli, UniProt P0A9Q1 P0A9Q1:1-238); test: footprint; all four DRs protected; apparent affinity higher than wt; narrow range (<4-fold) of ArcA-P; details: tags: His6 removed with TEV protease; phosphorylated with carbamyl phosphate; chain copies: 2 per two DR elements (inferred); label: 3' 32P (footprint)
T2 sequence: T1 sequence
Method: To determine whether adding a fourth DR element facilitates ArcA-P binding and increases the footprint length, a consensus DR element (5′-TGTTA-3′) (SEQ ID NO:2) was added at the same spacing (11 by center-to-center) to either the 3′ or the 5′ end of the three-DR ArcA binding site within the icdA promoter region and DNase I footprinting experiments were performed.
DNase I footprinting: icdA promoter fragments were isolated from pPK9476, pPK9477, pPK9908, pPK9909, pPK9913, pPK9914, and pPK15001 after digestion with XhoI and BamHI. Sequenase Version 2.0 (USB Scientific) was used to 3′ radiolabel the BamHI end of the fragment with [α-³²P]-dGTP (PerkinElmer). Labeled DNA fragments were isolated from a non-denaturing 5% acrylamide gel and were subsequently purified with Elutip-d™ columns (Schleicher and Schuell). ArcA was phosphorylated by incubating with 50 mM disodium carbamyl phosphate (Sigma Aldrich) in 50 mM Tris, pH 7.9, 150 mM NaCl, and 10 mM MgCl₂ for 1 hour at 30° C. (Lynch & Lin, J. Bacteria 178:6238-6249 (1996)) and immediately used in the binding assays. Footprinting assays were performed by incubating phosphorylated ArcA with labeled DNA (˜5 nM) for 10 minutes at 30° C. in 40 mM Tris (pH 7.9), 30 mM KCl, 100 μg/ml BSA and 1 mM DTT followed by the addition of 2 μg/ml DNase I (Worthington) for 30 seconds.

ArcA (chromosomal) [5] = biological target: T1, ArcA (chromosomal); test: cell_activity; anaerobic; remark: listed apart in the source
Method: as §1, §2

ArcA (chromosomal) [6] = biological target: T1, ArcA (chromosomal); test: cell_activity; aerobic; anaerobic repression similar to consensus DR3 alone
Method: as §1, §2

ArcA (chromosomal) [7] = biological target: T1, ArcA (chromosomal); test: cell_activity; anaerobic; aerobic repression nearly the same, no longer O2 sensitive
Method: as §1, §2

ArcA (chromosomal) [8] = biological target: T1, ArcA (chromosomal); test: cell_activity; anaerobic; aerobic 7-fold repression
Method: as §1, §2

ArcA D54E = biological target: T3, ArcA D54E (Escherichia coli, UniProt P0A9Q1 P0A9Q1:1-238, D54E); test: cell_activity; anaerobic; aerobic repression above wt ArcA
T3 sequence: T1 sequence with D54E
Text: To test whether the enhanced repression of P₁idcdA with mutant ArcA binding sites is still dependent on phosphorylation, the aspartate residue at position 54 (site of phosphorylation) in the chromosomal copy of arcA was mutated to yield either alanine or glutamate, preventing phosphorylation from ArcB. The D54A variant reduced the repression of all P1icdA-lacZ constructs compared to that with the wt protein under both aerobic and anaerobic growth conditions (FIG. 5A). […] Thus, the elevated aerobic repression with the strengthened ArcA binding sites appears to result from increased occupancy of the small amount of ArcA-P likely present during aerobic conditions.
as §2, with “(aerobic). Cells were harvested during mid-log growth (OD₆₀₀ of ˜0.3 on a Perkin Elmer Lambda 25 UV/Vis Spectrophotometer).” for “(aerobic).”

B1: icdA P1 wt (dsDNA)
DNA 1: AGAGCAATTTTTTGTTAATGATTTGTAATTGGCTTGTCAATACTACCCTATTGT
DNA 2: ACAATAGGGTAGTATTGACAAGCCAATTACAAATCATTAACAAAAAATTGCTCT
With B1 the activity (ArcA (chromosomal) [1]) was 14 fold repression.

B2: icdA P1 DR3 GT->CA (dsDNA)
DNA 1: B1 DNA 1 with G36C, T37A
DNA 2: B1 DNA 2 with A18T, C19G
With B2 the activity (ArcA (chromosomal) [2]) was ~3.5 fold loss in repression vs wt.

B3: icdA P1 DR2 A->T (dsDNA)
DNA 1: B1 DNA 1 with A27T
DNA 2: B1 DNA 2 with T28A
With B3 the activity (ArcA (chromosomal) [3]) was 3 fold increase in repression vs wt.

B4: icdA P1 3' DR4 (dsDNA)
DNA 1: B1 DNA 1 with C46T, C47G, C48T
DNA 2: B1 DNA 2 with G7A, G8C, G9A
B4: binds [4].

B5: icdA P1 DR2 A->T, DR3 GT->CA (dsDNA)
DNA 1: B1 DNA 1 with A27T, G36C, T37A
DNA 2: B1 DNA 2 with A18T, C19G, T28A
In the case of B5, the activity (ArcA (chromosomal) [5]) is reported as 3 fold reduction in repression vs DR2 A->T.

B6: icdA P1 DR2 A->T, DR3 C->T (dsDNA)
DNA 1: B1 DNA 1 with A27T, C38T
DNA 2: B1 DNA 2 with G17A, T28A
In the case of B6, the activity (ArcA (chromosomal) [6]) is reported as 21 fold repression.

B7: icdA P1 5' DR4 (dsDNA)
DNA 1: B1 DNA 1 with G2T, A3G, G4T, C5T
DNA 2: B1 DNA 2 with G50A, C51A, T52C, C53A
With B7 the activity (ArcA (chromosomal) [7]) was 8 fold increase in repression vs wt.

B8: icdA P1 DR3 C->T (dsDNA)
DNA 1: B1 DNA 1 with C38T
DNA 2: B1 DNA 2 with G17A
With B8 the activity (ArcA (chromosomal) [8]) was 6 fold increase in repression vs wt and the activity (ArcA D54E) was 2 fold reduction in repression vs wt ArcA.
